Data: US20170145391

What was measured:
[1] = molecular target: 4E-BP1 (Calbiochem), Q13541
Sequence of 4E-BP1 (Calbiochem), Q13541 (Q13541 whole entry): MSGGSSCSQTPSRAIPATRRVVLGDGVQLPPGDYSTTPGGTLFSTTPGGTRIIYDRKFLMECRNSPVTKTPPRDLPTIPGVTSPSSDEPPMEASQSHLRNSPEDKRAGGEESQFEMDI

Sequence of His-S6K1C, P23443 (P23443 332-502): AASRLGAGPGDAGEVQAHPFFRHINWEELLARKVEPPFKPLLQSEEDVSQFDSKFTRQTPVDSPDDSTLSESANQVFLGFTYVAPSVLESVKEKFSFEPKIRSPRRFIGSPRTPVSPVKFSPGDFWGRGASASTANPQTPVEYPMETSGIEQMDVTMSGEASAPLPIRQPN

B1: FLAG-mTORβ (protein)
chain: MLGTGPAAATTAATTSSNVSVLQKKVTEDLSKTLLMYTVPAVQGFFRSISLSRGNNLQDTLRVLTLWFDYGHWPDVNEALVEGVKAIQIDTWLQVIPQLIARIDTPRPLVGRLIHQLLTDIGRYHPQALIYPLTVASKSTTTARHNAANKILKNMCEHSNTLVQQAMMVSEELIRVAILWHEMWHEGLEEASRLYFGERNVKGMFEVLEPLHAMMERGPQTLKETSFNQAYGRDLMEAQEWCRKYMKSGNVKDLTQAWDLYYHVFRRISKQLPQLTSLELQYVSPKLLMCRDLELAVPGTYDPNQPIIRIQSIAPSLQVITSKQRPRKLTLMGSNGHEFVFLLKGHEDLRQDERVMQLFGLVNTLLANDPTSLRKNLSIQRYAVIPLSTNSGLIGWVPHCDTLHALIRDYREKKKILLNIEHRIMLRMAPDYDHLTLMQKVEVFEHAVNNTAGDDLAKLLWLKSPSSEVWFDRRTNYTRSLAVMSMVGYILGLGDRHPSNLMLDRLSGKILHIDFGDCFEVAMTREKFPEKIPFRLTRMLTNAMEVTGLDGNYRITCHTVMEVLREHKDSVMAVLEAFVYDPLLNWRLMDTNTKGNKRSRTRTDSYSAGQSVEILDGVELGEPAHKKTGTTVPESIHSFIGDGLVKPEALNKKAIQIINRVRDKLTGRDFSHDDTLDVPTQVELLIKQATSHENLCQCYIGWCPFW
mTOR in vitro kinase assay; immunoblot with phosphospecific antibody pT389-S6K1 (His-S6K1C, P23443): mTORβ can phosphorylate both S6K1 and 4E-BP1 in vitro, but to a lesser extent than mTORα
mTOR in vitro kinase assay; immunoblot with phosphospecific antibody pS65-4E-BP1 [1]: mTORβ can phosphorylate both S6K1 and 4E-BP1 in vitro, but to a lesser extent than mTORα
